The record followed here is patent US20100233079A1 (AbbVie / Abbott, published 2010).

In test [1] the target is T1, NRP1 (Neuropilin-1 Npn-1-His tag) (UniProt O14786-2 22-644, limits assumed).
T1 construct: Bought antigen with a His tag
Put plainly: direct bind ELISA, antigen on plate. On the procedure: Enzyme Linked Immunosorbent Assays to screen for antibodies that bind a desired target antigen were performed as follows. […] Plates were washed four times with PBS containing 0.02% Tween 20. […] Plates were washed four times after blocking with PBS containing 0.02% Tween 20.
One hundred microliters of 10 ng/mL goat anti-human IgG-FC specific HRP conjugated antibody (Southern Biotech #2040-05, Birmingham, Ala.) was added to each well of the desired target antigen plate or anti-polyHistidine antibody/Histidine tagged desired target antigen plate. Alternatively, one hundred microliters of 10 ng/mL goat anti-human IgG-kappa light chain specific HRP conjugated antibody (Southern Biotech #2060-05 Birmingham, Ala.) was added to each well of the desired target antigen/FC fusion plate and incubated for 1 hour at room temperature. Plates were washed 4 times with PBS containing 0.02% Tween 20.
(In general: In an ELISA, binding on a coated surface is turned into a signal by an enzyme label.)

Test [2] has as its target T2, rhIL-13 (recombinant human IL-13) (human, UniProt P35225 35-146, limits assumed). The experiment in a line: SPR (Biacore 3000), mAb captured by anti-human IgG Fc, antigen in solution. The source says:
Unreacted moieties on the biosensor surface were blocked with ethanolamine. Modified carboxymethyl dextran surface in flowcell 2 and 4 was used as a reaction surface.
In general terms: Surface plasmon resonance follows binding to a sensor surface in real time, without labels.

The target of test [3] is T2, rhIL-13 (recombinant human IL-13). Put plainly: cell-based or functional assay.

T2 sequence (P35225 35-146 limits assumed): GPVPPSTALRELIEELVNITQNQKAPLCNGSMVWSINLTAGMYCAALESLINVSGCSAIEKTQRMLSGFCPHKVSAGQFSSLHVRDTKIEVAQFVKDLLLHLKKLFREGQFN

B1: AB016 (antibody, V domains shown)
VH: EVQLVESGGGLVQPGGSLRLSCAASGFSFSSEPISWVRQAPGKGLEWVSSITGKNGYTYYADSVKGRFTISADTSKNTAYLQMNSLRAEDTAVYYCARWGKKVYGMDVWGQGTLVTVSS
VL: DIQMTQSPSSLSASVGDRVTITCRASQSISSYLAWYQQKPGKAPKLLIYGASSRASGVPSRFSGSGSGTDFTLTISSLQPEDFATYYCQQYMSVPITFGQGTKVEIKR
notes: Parent antibody
Usually EC50 stands for the concentration needed to bring the measured effect to its halfway point. B1 had an EC50 in test [1] of 0.28 nM.

B2: 13C5.5 (antibody, V domains shown)
VH: EVTLRESGPGLVKPTQTLTLTCTLYGFSLSTSDMGVDWIRQPPGKGLEWLAHIWWDDVKRYNPALKSRLTISKDTSKNQVVLKLTSVDPVDTATYYCARTVSSGYIYYAMDYWGQGTLVTVSS
VL: DIQMTQSPSSLSASVGDRVTISCRASQDIRNYLNWYQQKPGKAPKLLIFYTSKLHSGVPSRFSGSGSGTDYTLTISSLQPEDIATYYCQQGNTLPLTFGGGTKVEIKR
notes: Monoclonal antibody; also called AB231
As usually defined, the Kd is a measure of binding affinity in units of concentration. As for B2, the Kd in test [2] is 0.15 nM. In addition, the “IC50 (nM), A549 bioassay (IL-13 induced TARC)” value in test [3] was 0.2 nM.

B3: 13C5.5L3F (antibody, V domains shown)
VH: EVTLRESGPGLVKPTQTLTLTCTLYGFSLSTSDMGVDWIRQPPGKGLEWLAHIWWDDVKRYNPALKSRLTISKDTSKNQVVLKLTSVDPVDTATYYCARTVSSGYIYYAMDYWGQGTLVTVSS
VL: DIQMTQSPSSLSASVGDRVTISCRASQDIRNYLNWYQQKPGKAPKLLIFYTSKLHSGVPSRFSGSGSGTDYTLTISSLQPEDIATYYCQQGLTPPLTFGGGTKVEIKR
notes: Monoclonal antibody; also called AB232
For the molecule B3, in test [2], the Kd is 0.24 nM. Also, the “IC50 (nM), A549 bioassay (IL-13 induced TARC)” value in test [3] is 0.31 nM.
